Positions of bridges follow the written chain, without caps; N, C: chain ends. No end group written: not given here. Some results are limits rather than exact numbers.

Data set [1] in a line: Circular dichroism spectra of peptides. The format is physicochemical. The conditions noted are these: 10° C.; 20 μM peptide in 20 mM potassium phosphate, pH 7.0. As to the method:
Terminal serine and lysine residues were added to improve the solubility of some variants of the CD4 peptide, which are otherwise uncharged. A similar modification was made to bhpW as a control. Non-turn residues that differ between bhpW and the CD4 loop are underlined. Coelution of reduced and oxidized peptides prevented measurement of Ceff for the T2, N3 variant of the CD4 peptide. Circular dichroism spectra were acquired at 10° C. with an Aviv Instruments, Inc. Model 202 spectrophotometer; peptide concentrations were 20 μM in 20 mM potassium phosphate, pH 7.0.
For orientation: Circular dichroism is widely used to follow secondary structure.

The nature of data set [2]: Cysteine effective concentration (Ceff) measurement, thiol-disulfide equilibrium relative to glutathione. It counts as physicochemical. As to the method:
Cysteine Effective Concentration Measurements. Glutathione stock solutions were prepared by mixing 3 volumes of 0.2 M reduced glutathione (GSH) with 1 volume of 0.1 M oxidized glutatione (GSSG). Aliquots were stored at −80° C. and were stable for several months; use of a single batch eliminated any error in ΔΔG values that might arise from variability of total glutathione concentration. Thiol-disulfide equilibria were established by mixing 50 μL peptide stock (approximately 3 mM in water) with 50 μL glutathione stock, deoxygenating the acidic solution with vacuum/argon cycles from a Firestone valve, then adding 300 μL of deoxygenated buffer by syringe (0.2 M tris, pH 8.0; 1 mM EDTA; 67 mM tris base to titrate glutathione), followed by further deoxygenation of the mixture. The final pH of all reaction mixtures was 8.10±0.05. Solutions were stirred under argon and maintained at 20° C. in a water bath. After 1.5 h, successive aliquots (100 μL) were removed with a gastight syringe, immediately quenched by discharge into 400 μL of 3.1 mM HCl, and analyzed by HPLC with a minimum of delay. Ceff values were calculated from the molar ratios of the reduced and oxidized forms of peptide and glutathione (peak area ratios corrected for absorbance differences measured by HPLC), assuming 0.025 M total glutathione monomer (i.e., neglecting the minor amount (<1%) of glutathione present in mixed disulfides with peptide): Ceff=([peptideox]/[peptidered])×([GSH]^2/[GSSG]) [GSH]+2[GSSG]=0.025 M [GSSG]=0.025 M/{2+3.26 (GSH peak area/GSSG peak area)} [peptideox]/[peptidered]=equilibrium peak area ratio/absorbance ratio
Two or three samples from each reaction mixture were analyzed; there were no shifts in populations with time, and calculated Ceff values typically varied by less than 5% (equivalent to 30 cal/mol uncertainty in ΔΔG).

The nature of data set [3]: 1H NMR analysis of hairpin structure in solution. The format is physicochemical. To be noted: for structure in solution: NMR, ~2 mM peptide, pH 3.5. The method, then: NMR Spectroscopy. […] All spectra were acquired on a Bruker DRX-500 or a Varian Unity-400 spectrometer at 15° C. 2QF-COSY, TOCSY and ROESY spectra were acquired as described (Cavanagh et al. (1995) Protein NMR Spectroscopy, Principles and Practices (Academic Press, San Diego) with gradient coherence selection (van Zijl et al. (1995) J. Magn. Reson. 113A:265-270), or excitation sculpting (Hwang & Shaka, (1995) J. Magn. Reson. 112A, 275-279.) for water suppression. Proton resonances were assigned by standard methods (Wüthrich (1986) NMR of Proteins and Nucleic Acids (John Wiley and Sons, New York). 3JH^N-H^α were obtained by fitting Lorentzian lines to the antiphase doublets of HN—H^α peaks in 2QF-COSY spectra processed to high digital resolution in F2. ^3JH^N-H^α were extracted from COSY-35 spectra acquired on D2O solutions of the peptides. Distance and dihedral angle restraints were generated as described (Skelton et al. (1994) Biochemistry 33:13581-13592). 100 initial structures were calculated using the hybrid distance geometry/simulated annealing program DGII (Havel et al. (1991) Prog. Biophys. Mol. Biol. 56:43-78.); 80 of these were further refined by restrained molecular dynamics using the AMBER all-atom forcefield implemented in DISCOVER as described previously (Skelton et al. (1994) Biochemistry 33:13581-13592.). […]
Structure Calculation. Structures were calculated with 78 ROE-derived distance restraints (10 medium- and 28 long-range restraints; upper bounds of 5.4, 4.3, 3.4 or 3.0 Å) and 12 dihedral angle restraints. […]
NMR Analysis. […] Spectra were acquired and analyzed as described above. The structure of cd2 was calculated from 84 (including 13 medium- and 23 long-range) ROE-derived distance restraints and 13 dihedral angle restraints. […]
Analysis of Sidechain Rotamers. […] Given the large number of backbone-backbone distance and Φ dihedral angle restraints, the structures calculated for bhpw and cd2 do accurately represent the solution conformation of these peptides, except in the over determination of some side chain orientations.

The next data set relates to CD4. To be noted: normal CD4 interactions and CD4-mediated cell entry by HIV; cited from earlier work.
Setting [4] is: Table 2, bhpW and CD4 C′-C″ loop peptides, pH 8.10, 20° C.

Regarding “Ac-CTWEGNKLTC-NH2 (disulfide 1-10 (inferred)) [bhpW, tryptophan analog of the model β-hairpin peptide bhp]”, the “[θ]215” value in data set [1] is listed as −19,800 deg cm^2 dmol^−1. In addition, the Ceff in data set [2] (Table 1, bhp peptides varied at residue 3, pH 8.10, 20° C.) worked out at 210 ± 4 mM; in data set [2] (setting [4]) it was 210 ± 4 mM. Moreover, the hairpin conformation population in data set [3] (15° C., estimate) is recorded as > 80%.
As to “Ac-CGNQGSFLTC-NH2 (disulfide 1-10 (inferred)) [cd1, disulfide-constrained peptide based on native CD4 hairpin residues 38-45]”, in data set [3], the structure in solution result is given as “essentially unstructured”.
In the case of “SCGWQGSFLTCK-NH2 (disulfide 2-11 (inferred))”, the “[θ]215” value in data set [1] is recorded as −6,100 deg cm^2 dmol^−1. Besides, the Ceff in data set [2] (setting [4]) is recorded as 48 ± 0 mM.
As for “SCTWEGNKLTCK-NH2 (disulfide 2-11 (inferred)) [bhpW with terminal serine and lysine added as a control]”, the “[θ]215” value in data set [1] was −17,400 deg cm^2 dmol^−1. Besides, the Ceff in data set [2] (setting [4]) came out at 273 ± 2 mM.
On to “Ac-CTWQGSFLTC-NH2 (disulfide 1-10 (inferred)) [cd2, cd1 with substitutions G2T and N3W]”, for which the “[θ]215” value in data set [1] is reported as −15,800 deg cm^2 dmol^−1. The structure in solution result in data set [3] is “well-ordered”.
For “SCGNQGSFLTCK-NH2 (disulfide 2-11 (inferred)) [cd1a]”, the “[θ]215” value in data set [1] is on record as −1,500 deg cm^2 dmol^−1. This substance also displayed a Ceff in data set [2] (setting [4]) of 45 ± 4 mM.
As for “FCYICEVEDQCY (also: cyclic, type and places not given here) [cyclic peptide from loops of domain 1 of human CD4]”, in the data set with CD4, the “antagonism of CD4 interactions” value is on record as “antagonize”.
Take “SCTWQGSFLTCK-NH2 (disulfide 2-11 (inferred)) [cd2a]”: the “[θ]215” value in data set [1] is recorded as −14,000 deg cm^2 dmol^−1. Also, the Ceff in data set [2] (setting [4]) worked out at 120 ± 0 mM.

Values taken from patent publication US7235626B1, “Structured peptide scaffold for displaying turn libraries on phage” (Genentech, Inc., priority 1999, dated 2007).
